Results on one protein are retold here after patent US20100204091.

This series concerns the target T1, SIVA2.
T1 chain: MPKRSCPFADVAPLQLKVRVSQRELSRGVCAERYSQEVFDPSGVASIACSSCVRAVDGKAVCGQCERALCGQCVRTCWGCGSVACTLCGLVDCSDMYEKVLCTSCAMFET

B1: NF-κB-inducing kinase, NIK, (MAP3K14) (protein)
chain: MAVMEMACPGAPGSAVGQQKELPKAKEKTPPLGKKQSSVYKLEAVEKSPVFCGKWEILNDVITKGTAKEGSEAGPAAISIIAQAECENSQEFSPTFSERIFIAGSKQYSQSESLDQIPNNVAHATEGKMARVCWKGKRRSKARKKRKKKSSKSLAHAGVALAKPLPRTPEQESCTIPVQEDESPLGAPYVRNTPQFTKPLKEPGLGQLCFKQLGEGLRPALPRSELHKLISPLQCLNHVWKLHHPQDGGPLPLPTHPFPYSRLPHPFPFHPLQPWKPHPLESFLGKLACVDSQKPLPDPHLSKLACVDSPKPLPGPHLEPSCLSRGAHEKFSVEEYLVHALQGSVSSGQAHSLTSLAKTWAARGSRSREPSPKTEDNEGVLLTEKLKPVDYEYREEVHWATHQLRLGRGSFGEVHRMEDKQTGFQCAVKKVRLEVFRAEELMACAGLTSPRIVPLYGAVREGPWVNIFMELLEGGSLGQLVKEQGCLPEDRALYYLGQALEGLEYLHSRRILHGDVKADNVLLSSDGSHAALCDFGHAVCLQPDGLGKSLLTGDYIPGTETHMAPEVVLGRSCDAKVDVWSSCCMMLHMLNGCHPWTQFFRGPLCLKIASEPPPVREIPPSCAPLTAQAIQEGLRKEPIHRVSAAELGGKVNRALQQVGGLKSPWRGEYKEPRHPPPNQANYHQTLHAQPRELSPRAPGPRPAEETTGRAPKLQPPLPPEPPEPNKSPPLTLSKEESGMWEPLPLSSLEPAPARNPSSPERKATVPEQELQQLEIELFLNSLSQPFSLEEQEQILSCLSIDSLSLSDDSEKNPSKASQSSRDTLSSGVHSWSSQAEARSSSWNMVLARGRPTDTPSYFNGVKVQIQSLNGEHLHIREFHRVKVGDIATGISSQIPAAAFSLVTKDGQPVRYDMEVPDSGIDLQCTLAPDGSFAWSWRVKHGQLENRP
Take B1: the “in vitro kinase assay (phosphorylation of SIVA2)” value is reported as “NIK readily phosphorylated SIVA2”.
